This is an account of results in PMC7876045.

The data set deals with RNAP sigma70 holoenzyme (Esigma70) (Escherichia coli) (UniProt P0A7Z4+P0A8V2+P0A8T7+P0A800+P00579). The experiment in a line: KMnO4 footprinting. The note with it: 40 mM Tris-HCl pH 8.0, 1 mM DTT, 0.1 mg/ml BSA, 10 mM MgCl2, 50 mM KCl, 37 C (transcription buffer); 150 nM Esigma70, sample mixed 1:1 with 20 mM KMnO4 for ….

In the case of “ACCTCGGTATGCCTTGTGACTGGCTTGACAAGCTTTTCCTCAGCTCCGTAAACTCCTTTCAGTGGGAAATTGTGGGGCAAAGTGGGAATAAGGGGTGAGGCTGGCATGTTCCGGGGAGCAA (double strand) [mraZ promoter (G1p) permanganate template]”, the binding result is given as “binds”.

In the case of “ATCGCCAGCGCGCGATGATGTTCCGAAGACTATAAGGCATGTTATAGTCTGGATTATATTGAGGCAAGTCACCCTCCCATTTATTCAGAGTAAAAGTCTATTCTGTGATAAATGGC (double strand) [minC promoter (G1d) permanganate template]”, the binding entry is recorded as “binds”.
